# Experimental data from article PMC11143224, “Flavivirus Zika NS4A protein forms large oligomers in liposomes and in mild detergent” (Scientific Reports, 2024).
# How the values were obtained:
# [1] = target: the molecule itself; experiment: AUC; sedimentation velocity, most diluted samples (detergent-to-protein ratio 640 and 320); 1 mM C14-betaine, 50 mM Tris-HCl pH 7.3, 100 mM NaCl, 2 mM TCEP, 33.4% D2O, 50,000 rpm, 25 °C, absorbance at 230 nm
# [2] = target: the molecule itself; experiment: cross-linking; purified NS4A (12 uM) in POPC/POPS (4:1) liposomes, lipid-to-protein ratios 40, 100 and 250; DSS 0.03-1.0 mM, or DSG, BS3, DSS, EGS, DSP at 0.25 mM, 15 min; SDS-PAGE and anti-His-tag Western blot
# [3] = target: the molecule itself; experiment: AUC; sedimentation equilibrium, multi-speed (15,000-33,000 rpm), 1 mM C14-betaine, 50 mM Tris-HCl pH 7.3, 100 mM NaCl, 2 mM TCEP, 33.4% D2O, absorbance at 280 nm; fitted in SEDPHAT; constant is of dimers to hexamer
protein,measurement,setting,value
"full-length Zika NS4A protein (strain MR-766) (natural protein, NS4A of Zika virus strain MR-766, the cut product of the polyprotein (mature NS4A without 2K), 127 residues (1-127); also called ZIKV NS4A; NS4A-FL; not shown: His-tag, N-terminal, kept) GAALGVMEALGTLPGHMTERFQEAIDNLAVLMRAETGSRPYKAAAAQLPETLETIMLLGLLGTVSLGIFFVLMRNKGIGKMGFGMVTLGASAWLMWLSEIEPARIACVLIVVFLLLVVLIPEPEKQR",stoichiometry N,[1],2
same,stoichiometry N,[2],≥ 6
same,stoichiometry N,[3],6
